Data taken from PMC5389574 (Nucleic Acids Research, 2016).

Biological target: T1, recombinant Rpb4/Rpb7-6His (S. cerevisiae, UniProt P20433 1-221; P34087 1-171)
T1 sequence (looked up) 1: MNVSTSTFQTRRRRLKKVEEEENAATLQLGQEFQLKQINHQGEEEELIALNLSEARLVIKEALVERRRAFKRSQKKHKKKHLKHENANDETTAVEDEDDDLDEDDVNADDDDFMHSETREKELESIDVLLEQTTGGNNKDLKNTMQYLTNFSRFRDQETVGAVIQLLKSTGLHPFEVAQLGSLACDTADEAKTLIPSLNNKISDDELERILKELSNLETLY
T1 sequence (looked up) 2: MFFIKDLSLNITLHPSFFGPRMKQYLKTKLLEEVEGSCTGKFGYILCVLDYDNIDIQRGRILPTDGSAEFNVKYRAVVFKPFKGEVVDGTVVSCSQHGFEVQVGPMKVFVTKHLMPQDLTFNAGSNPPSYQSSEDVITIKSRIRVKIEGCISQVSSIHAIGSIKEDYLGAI
Test: pull-down

B1: recombinant Sub1 (natural protein, S. cerevisiae, UniProt P54000 1-292, looked up)
chain: MSYYNRYRNKRRSDNGGGNLSNSNNNNGGMPSGLSASDAIFDLGKNKRVTVRQFRNINLIDIREYYLDSSTGEMKPGKKGISLTEDLYDELLKHRLNIDEALRRLGSKRPKTKMVRLLSDDEYEDDNNNDSTNNDKDKNGKDKNSPKKRREDKSKASNESHDLEPRSKKKKPAPPTLLPHEENIQNAEREANATLIIPGQAGRKQQEERKQKEKEEAEEAKAKAVAEQEKEAKAKEKIAEPEPEPVPTLQAKKEDIVSNINESKDANSSDEEFAQSLEAEMNKAEDDISEEE
binding result: binds
